According to article PMC7979726 (Nature Communications, 2021):

Target: T1, Mcm3 (S. cerevisiae, UniProt P24279 1-971)
T1 construct: Mcm3, S. cerevisiae; native protein without extra amino acids after SUMO cleavage; source: Champion pET SUMO Protein Expression System (Invitrogen); purified individually; protocols in Supplementary Data; not shown: SUMO, N-terminal, cleaved
Experiment: SEC; individually purified subunits mixed and the complex (Mcm5/3/7, Mcm2/6/4 or MCM-Cdt1) isolated by gel filtration
Details: both partners purified

T1 sequence (P24279 whole entry): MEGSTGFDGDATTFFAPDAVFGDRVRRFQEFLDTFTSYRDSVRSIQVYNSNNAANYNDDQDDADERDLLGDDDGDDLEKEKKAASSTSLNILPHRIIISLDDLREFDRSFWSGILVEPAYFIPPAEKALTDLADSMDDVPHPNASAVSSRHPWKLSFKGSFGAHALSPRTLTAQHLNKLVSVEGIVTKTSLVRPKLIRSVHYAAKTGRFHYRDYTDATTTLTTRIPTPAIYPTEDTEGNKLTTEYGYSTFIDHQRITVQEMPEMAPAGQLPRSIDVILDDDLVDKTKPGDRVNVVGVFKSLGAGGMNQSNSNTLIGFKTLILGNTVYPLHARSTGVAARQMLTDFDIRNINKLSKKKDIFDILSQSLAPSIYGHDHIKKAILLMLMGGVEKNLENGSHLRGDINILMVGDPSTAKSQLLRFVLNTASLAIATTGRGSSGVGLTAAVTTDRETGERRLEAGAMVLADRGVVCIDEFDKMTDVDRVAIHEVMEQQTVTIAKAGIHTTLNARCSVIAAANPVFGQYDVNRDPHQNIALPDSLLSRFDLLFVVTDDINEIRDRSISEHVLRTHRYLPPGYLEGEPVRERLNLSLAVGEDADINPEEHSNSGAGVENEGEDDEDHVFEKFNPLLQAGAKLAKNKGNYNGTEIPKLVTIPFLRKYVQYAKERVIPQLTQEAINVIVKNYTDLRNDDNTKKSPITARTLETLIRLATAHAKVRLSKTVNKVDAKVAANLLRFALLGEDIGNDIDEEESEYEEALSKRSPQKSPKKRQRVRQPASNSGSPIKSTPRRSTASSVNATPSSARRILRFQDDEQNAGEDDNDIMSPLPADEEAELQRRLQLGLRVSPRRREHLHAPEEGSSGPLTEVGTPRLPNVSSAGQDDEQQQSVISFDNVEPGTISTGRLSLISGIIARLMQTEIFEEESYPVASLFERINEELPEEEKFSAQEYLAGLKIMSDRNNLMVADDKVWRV

B1: Mcm7 (natural protein, S. cerevisiae, UniProt P38132 1-845, looked up)
chain: MSAALPSIQLPVDYNNLFNEITDFLVTFKQDTLSSDATRNENEDENLDAENIEQHLLEKGPKYMAMLQKVANRELNSVIIDLDDILQYQNEKFLQGTQADDLVSAIQQNANHFTELFCRAIDNNMPLPTKEIDYKDDVLDVILNQRRLRNERMLSDRTNEIRSENLMDTTMDPPSSMNDALREVVEDETELFPPNLTRRYFLYFKPLSQNCARRYRKKAISSKPLSVRQIKGDFLGQLITVRGIITRVSDVKPAVEVIAYTCDQCGYEVFQEVNSRTFTPLSECTSEECSQNQTKGQLFMSTRASKFSAFQECKIQELSQQVPVGHIPRSLNIHVNGTLVRSLSPGDIVDVTGIFLPAPYTGFKALKAGLLTETYLEAQFVRQHKKKFASFSLTSDVEERVMELITSGDVYNRLAKSIAPEIYGNLDVKKALLLLLVGGVDKRVGDGMKIRGDINVCLMGDPGVAKSQLLKAICKISPRGVYTTGKGSSGVGLTAAVMKDPVTDEMILEGGALVLADNGICCIDEFDKMDESDRTAIHEVMEQQTISISKAGINTTLNARTSILAAANPLYGRYNPRLSPLDNINLPAALLSRFDILFLMLDIPSRDDDEKLAEHVTYVHMHNKQPDLDFTPVEPSKMREYIAYAKTKRPVMSEAVNDYVVQAYIRLRQDSKREMDSKFSFGQATPRTLLGIIRLSQALAKLRLADMVDIDDVEEALRLVRVSKESLYQETNKSKEDESPTTKIFTIIKKMLQETGKNTLSYENIVKTVRLRGFTMLQLSNCIQEYSYLNVWHLINEGNTLKFVDDGTMDTDQEDSLVSTPKLAPQTTASANVSAQDSDIDLQDA
notes: Mcm7, S. cerevisiae; native protein without extra amino acids after SUMO cleavage; source: Champion pET SUMO Protein Expression System (Invitrogen); purified individually; protocols in Supplementary Data; not shown: SUMO, N-terminal, cleaved
binding result: binds
